Test results from article PMC12102336.

What was measured:
ALX4 R216A = ALX4 R216A (Mus musculus (region identical to human), UniProt Q9H161 209-274, R216A); assay: EMSA
ALX4 R215A;R216A = ALX4 R215A;R216A (Mus musculus (region identical to human), UniProt Q9H161 209-274, R215A;R216A); assay: EMSA
ALX4 R215A = ALX4 R215A (Mus musculus (region identical to human), UniProt Q9H161 209-274, R215A); assay: EMSA
ALX4 Q225E = ALX4 Q225E (Mus musculus (region identical to human), UniProt Q9H161 209-274, Q225E); assay: EMSA
Sequence of ALX4 Q225E (Q9H161 209-274 Q225E): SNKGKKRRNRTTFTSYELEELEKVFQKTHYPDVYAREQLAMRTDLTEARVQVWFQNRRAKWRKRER

ALX4 R216G = ALX4 R216G (Mus musculus (region identical to human), UniProt Q9H161 209-274, R216G); assay: EMSA
Sequence of ALX4 R216G (Q9H161 209-274 R216G): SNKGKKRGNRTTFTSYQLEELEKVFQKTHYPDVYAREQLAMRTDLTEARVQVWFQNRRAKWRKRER

[1] = target: ALX4 169-303;ALX4 HD (209-274) (Mus musculus (region identical to …, UniProt Q9H161;Q9H161 169-303;209-274, |)); assay: EMSA
Sequence of ALX4 169-303;ALX4 HD (209-274) (Mus musculus (Q9H161 169-303, chain 1 of 2): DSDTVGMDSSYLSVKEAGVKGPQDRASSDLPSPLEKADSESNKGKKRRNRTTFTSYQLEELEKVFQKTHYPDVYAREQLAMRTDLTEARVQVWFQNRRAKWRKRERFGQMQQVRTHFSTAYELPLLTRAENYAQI
Sequence of ALX4 169-303;ALX4 HD (209-274) (Mus musculus (Q9H161 209-274, chain 2 of 2): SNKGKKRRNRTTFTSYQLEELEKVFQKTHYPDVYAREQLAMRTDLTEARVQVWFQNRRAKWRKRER

ALX4 169-303;ALX4 R272P = ALX4 169-303;ALX4 R272P (Mus musculus (region identical to …, UniProt Q9H161;Q9H161 169-303;209-274, |R272P)); assay: EMSA
Sequence of ALX4 169-303;ALX4 R272P (Mus musculus (Q9H161 169-303, stated change not applied, chain 1 of 2): as the sequence (Q9H161 169-303, chain 1 of 2) above
Sequence of ALX4 169-303;ALX4 R272P (Mus musculus (Q9H161 209-274 R272P, chain 2 of 2): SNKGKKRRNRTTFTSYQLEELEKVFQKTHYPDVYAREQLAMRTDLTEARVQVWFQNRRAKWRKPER

ALX4 169-303;ALX4 K211E = ALX4 169-303;ALX4 K211E (Mus musculus (region identical to …, UniProt Q9H161;Q9H161 169-303;209-274, |K211E)); assay: EMSA
Sequence of ALX4 169-303;ALX4 K211E (Mus musculus (Q9H161 169-303, stated change not applied, chain 1 of 2): as the sequence (Q9H161 169-303, chain 1 of 2) above
Sequence of ALX4 169-303;ALX4 K211E (Mus musculus (Q9H161 209-274 K211E, chain 2 of 2): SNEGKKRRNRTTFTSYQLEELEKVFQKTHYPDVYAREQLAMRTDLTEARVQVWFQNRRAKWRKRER

ALX4 R272P = ALX4 R272P (Mus musculus (region identical to human), UniProt Q9H161 209-274, R272P); assay: EMSA
Sequence of ALX4 R272P (Q9H161 209-274 R272P): as the sequence (Q9H161 209-274 R272P, chain 2 of 2) above

ALX4 K211E = ALX4 K211E (Mus musculus (region identical to human), UniProt Q9H161 209-274, K211E); assay: EMSA
Sequence of ALX4 K211E (Q9H161 209-274 K211E): as the sequence (Q9H161 209-274 K211E, chain 2 of 2) above

ALX4 R218Q [2] = target: T1, ALX4 R218Q (Mus musculus (region identical to human), UniProt Q9H161 209-274, R218Q); assay: EMSA
T1 sequence (Q9H161 209-274 R218Q): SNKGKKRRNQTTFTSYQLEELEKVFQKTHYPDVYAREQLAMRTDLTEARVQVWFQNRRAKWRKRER

ALX4 R218Q [3] = target: T1, ALX4 R218Q; assay: ITC

Sequence of ALX4 R216A (Q9H161 209-274 R216A): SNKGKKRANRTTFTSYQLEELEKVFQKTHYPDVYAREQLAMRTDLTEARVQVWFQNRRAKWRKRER
Sequence of ALX4 R215A (Q9H161 209-274 R215A): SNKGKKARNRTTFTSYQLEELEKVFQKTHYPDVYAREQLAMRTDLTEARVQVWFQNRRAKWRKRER
Sequence of ALX4 R215A;R216A (Q9H161 209-274 R215A/R216A): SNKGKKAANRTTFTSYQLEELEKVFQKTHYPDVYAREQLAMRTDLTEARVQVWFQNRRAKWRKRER

| Binder | binding signal (ALX4 R216A) | binding signal (ALX4 R215A;R216A) | binding signal (ALX4 R215A) | binding signal (ALX4 Q225E) | binding signal (ALX4 R216G) | binding result [1] | binding result (ALX4 169-303;ALX4 R272P) | binding result (ALX4 169-303;ALX4 K211E) | binding result (ALX4 R272P) | binding result (ALX4 K211E) | binding result (ALX4 R218Q [2]) | binding result (ALX4 R218Q [3]) |
| --- | --- | --- | --- | --- | --- | --- | --- | --- | --- | --- | --- | --- |
| P3 EMSA probe (dsDNA) DNA 1: TGTGTCTTAATTAGATTAACGCACTTGATAGTGCGGGCGTGGCT DNA 2: AGCCACGCCCGCACTATCAAGTGCGTTAATCTAATTAAGACACA | ~10 fold reduction of Tau vs WT | ~20 fold reduction of Tau vs WT | ~5 fold reduction of Tau vs WT | ~2 fold reduction of Tau vs WT | ~10 fold reduction of Tau vs WT | binds | binds | binds | binds | binds | no binding |  |
| 14mer ITC duplex (dsDNA) DNA 1: CGCTAATTAGCTCG DNA 2: CGAGCTAATTAGCG |  |  |  |  |  |  |  |  |  |  |  | no binding |
